# Patent US20250289871A1
# Tests used:
# [1] = target: SARS-CoV-2 D614G spike protein (authentic virus) (SARS-CoV-2) (UniProt P0DTC2); assay: cell-based or functional assay
# [2] = target: SARS-CoV-2 Delta + T51I + T95I spike protein (authentic virus) (SARS-CoV-2) (UniProt P0DTC2); assay: cell-based or functional assay
substance,measurement,setting,value
cilgavimab (AZD1061) (antibody),Authentic Virus Neutralization IC50,[1],0.066 µg/mL
same,Authentic Virus Neutralization IC50,[2],0.014 µg/mL
